Where a chain is given by its changes, count along the chain named. No end group written: not given here. *: point of attachment. αGalNAc = CC(=O)N[C@@H]1[C@@H](O)[C@@H](O)[C@@H](CO)O[C@@H]1*
How the values were obtained:
[1] = target: T1, mouse GalNAc-T1 (pKN55-His6-TEV-mGalNAc-T1-∆56) (mouse, UniProt O08912 57-559); experiment: crystal structure; mouse GalNAc-T1 (5 mg/ml) combined with 4 mM Muc5AC-13, 5 mM UDP and 5 mM MnCl2; hanging drops, 20% PEG-3350, 0.1 M MES pH 6.5; 2.3 Å; conditions: both partners purified
T1 construct: mouse polypeptide N-acetylgalactosaminyltransferase 1 (GalNAc-T1), construct printed as mGalNAc-T1-∆56 (read as lacking the first 56 residues); 98% identical to human GalNAc-T1; The construct has a TEV site after the His6 tag; The start at residue 57 is read from the name ∆56; also called N-acetylgalactosaminyl-transferase 1; source: SD200 16/60 gel filtration before crystallization
T1 sequence (looked up): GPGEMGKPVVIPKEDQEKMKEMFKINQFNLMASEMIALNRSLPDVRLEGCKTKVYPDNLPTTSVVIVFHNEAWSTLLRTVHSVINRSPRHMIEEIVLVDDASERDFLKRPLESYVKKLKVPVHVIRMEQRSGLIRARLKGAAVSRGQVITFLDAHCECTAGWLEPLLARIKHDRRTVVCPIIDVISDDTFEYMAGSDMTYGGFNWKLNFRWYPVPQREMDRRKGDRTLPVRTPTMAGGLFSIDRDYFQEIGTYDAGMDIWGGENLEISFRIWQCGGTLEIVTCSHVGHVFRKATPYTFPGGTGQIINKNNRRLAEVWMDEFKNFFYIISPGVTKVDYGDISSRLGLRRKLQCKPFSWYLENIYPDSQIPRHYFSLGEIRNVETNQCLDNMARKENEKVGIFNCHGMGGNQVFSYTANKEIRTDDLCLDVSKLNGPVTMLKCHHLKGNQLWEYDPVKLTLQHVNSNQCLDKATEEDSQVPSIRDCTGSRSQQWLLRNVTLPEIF

[2] = target: T2, human GalNAc-T1 D484A (β repeat variant) (human) (UniProt Q10472)
T2 sequence: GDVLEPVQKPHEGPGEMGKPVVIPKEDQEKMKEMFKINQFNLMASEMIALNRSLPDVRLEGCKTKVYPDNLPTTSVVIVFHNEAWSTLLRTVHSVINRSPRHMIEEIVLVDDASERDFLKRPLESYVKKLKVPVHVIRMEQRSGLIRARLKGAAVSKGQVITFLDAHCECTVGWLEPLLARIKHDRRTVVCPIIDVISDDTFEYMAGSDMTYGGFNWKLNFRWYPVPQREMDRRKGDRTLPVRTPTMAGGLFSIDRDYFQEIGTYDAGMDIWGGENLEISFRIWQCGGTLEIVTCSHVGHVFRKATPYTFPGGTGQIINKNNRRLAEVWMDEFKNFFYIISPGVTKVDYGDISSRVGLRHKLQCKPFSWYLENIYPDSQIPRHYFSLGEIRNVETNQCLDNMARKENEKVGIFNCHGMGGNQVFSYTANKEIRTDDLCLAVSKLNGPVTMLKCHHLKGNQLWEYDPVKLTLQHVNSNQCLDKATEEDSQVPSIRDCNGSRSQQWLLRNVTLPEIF

[3] = target: T3, human GalNAc-T1 D444A (α repeat variant) (human) (UniProt Q10472)
T3 sequence: T2 sequence with D400A, A440D

B1: Muc5AC-13 glycopeptide (GTT3PSPVPTTSTT13^GalNAcSAP) (peptide)
peptide: GTTPSPVPTTSTT(αGalNAc)SAP
notes: Muc5AC mucin repeat peptide, 16 residues; numbers count on: the peptide; source: synthetic peptide (Anaspec)
binding result [1]: binds

GATPAPVPAGAGT(αGalNAc)PAP [Muc5AC-A13 glycopeptide (GAT3…13^GalNAcPAP)]
KM (UDP-Glo), fold increase compared to GalNAc-T1^WT [2]: 20 fold
kcat/KM (UDP-Glo), fold decrease compared to GalNAc-T1^WT [2]: 29 fold

GAT(αGalNAc)PAPVPAGAGTPAP [Muc5AC-A3 glycopeptide (GAT3^GalNAc…13PAP)]
KM (UDP-Glo), fold increase compared to GalNAc-T1^WT [3]: 10 fold
kcat/KM (UDP-Glo), fold reduction compared to GalNAc-T1^WT [3]: 16 fold

From publication PMC10901373, “An unusual dual sugar-binding lectin domain controls the substrate specificity of a mucin-type O-glycosyltransferase” (Science Advances, 2024)
